Source: publication PMC9599597

Target: F5_SusD-like protein (uncultured human gut Bacteroides strain)
Assay: SEC; Superdex 200 16/600 column; 20 mM Tris-HCl, 150 mM NaCl, pH 7.5

F5_SusD-like protein (natural protein)
stoichiometry N: 2
